Results taken from patent US20230265198A1 (TWIST BIOSCIENCE, published 2023).
Residue numbers refer to the chain shown, from its start. Each block holds one binder with its values, some of them ahead of it.

Biological target: T1, neuropilin-1 (NRP1) on HEK293 cells overexpressing NRP1 (UniProt O14786 22-923, limits assumed)
T1 construct: whole, on cells
Experiment: flow cytometry, HEK293-NRP1 vs HEK293

B1: NRP1-225 (antibody, IgG2, V domains shown)
VH: EVQLLESGGGLVQPGGSLRLSCAASGFMFSRYAMSWVRQAPGKGLEWVSAISGSGDTTHYADSVKGRFTISRDNSKNTLYLQMNSLRAEDTAVYYCARGGRGLRLQVPIVRHARKGKDYYMDVWGQGTLVTVSS
VL: DIQMTQSPSSLSASVGDRVTITCRASQSIGSHLSWYQQKPGKAPKLLIYRASSLQTGVPSRFSGSGSGTDFTLTISSLQPEDFATYYCLQTYSVPLTFGGGTKVEIK
- 100 nM FACS (MFI Ratio): 1.1

B2: NRP1-14 (VHH)
VHH: EVQLVESGGGLVQPGGSLRLSCAASGFTFRNFGMGWFRQAPGKEREFVSAISPGGVERYADSVKGRFTISADNSKNTAYLQMNSLKPEDTAVYYCATVGGYDYGYYYGMDVWGQGTLVTVSS
- 100 nM FACS (MFI Ratio): 15.4

B3: NRP1-136 (antibody, IgG2, V domains shown)
VH: EVQLLESGGGLVQPGGSLRLSCAASGFTFKDYGMNWVRQAPGKGLEWVSVISGSGGRPNYADSVKGRFTISRDNSKNTLYLQMNSLRAEDTAVYYCARVWRNHLDYWGQGTLVTVSS
VL: DIQMTQSPSSLSASVGDRVTITCSGDRLGEKYVSWYQQKPGKAPKLLIYGKKNRPSGVPSRFSGSGSGTDFTLTISSLQPEDFATYYCQAWASSTVVFGQGTKVEIK
- 100 nM FACS (MFI Ratio): 128

B5: NRP1-211 (antibody, IgG2, V domains shown)
VH: EVQLLESGGGLVQPGGSLRLYCAASGFTFGSYGMSWVRQAPGKGLEWVSSISGSGGSTYYTDSVKGRFTISRDNSKNTLYLQMNSLRAEDTAVYYCVRALAGRRDHWGQGTLVTVSS
VL: DIQMTQSPSSLSASVGDRVTITCRASQTISNYVNWYQQKPGKAPKLLIYAASSLHAGVPSRFSGSGSGTDFTLTISSLQPEDFATYYCQQGYSTPLTFGGGTKVEIK
- 100 nM FACS (MFI Ratio): 3.8

B8: NRP1-219 (antibody, IgG2, V domains shown)
VH: EVQLLESGGGLVQPGGSLRLSCAASGFPFSSYALSWVRQAPGKGLEWVSAITGSGGNTFYADSVKGRFTISRDNSKNTLYLQMNSLRAEDTAVYYCARGGQSGRPRVRGARRLDYYGMDVWGQGTLVTVSS
VL: B5 VL with T28S, N31K, Y32S, V33L, A50G, S53K, H55Q, A56R, T94A
- 100 nM FACS (MFI Ratio): 1.2

B12: NRP1-273 (antibody, IgG2, V domains shown)
VH: B5 VH
VL: B5 VL with Q27R, T28R, N31T, V33L
- 100 nM FACS (MFI Ratio): 6.2

B13: NRP1-10 (VHH)
VHH: EVQLVESGGGLVQPGGSLRLSCAASGFTFSMWPMGWFRQAPGKEREFVARITGGGSTIWSRGDTYYADSVKGRFTISADNSKNTAYLQMNSLKPEDTAVYYCARADYYDSSAFDYWGQGTLVTVSS
- 100 nM FACS (MFI Ratio): 19.6

B15: NRP1-223 (antibody, IgG2, V domains shown)
VH: EVQLLESGGGLVQPGGSLRLSCAASGFTFKKYAMSWVRQAPGKGLEWVSTISGSGRSTYYADSVKGRFTISRDNSKNTLYLQMNSLRAEDTAVYYCARDLARGTMPRGVIIPHNWFDPWGQGTLVTVSS
VL: DIQMTQSPSSLSASVGDRVTITCRASQSVRNYLNWYQQKPGKAPKLLIYGASRLHSGVPSRFSGSGSGTDFTLTISSLQPEDFATYYCQQSYSGPYSFGGGTKVEIK
- 100 nM FACS (MFI Ratio): 12.8

B16: NRP1-262 (antibody, IgG2, V domains shown)
VH: B15 VH
VL: B5 VL with A25T, T28S, S30N, N31T, V33L, S53G, A56S, G91A, S93G, L96F
- 100 nM FACS (MFI Ratio): 6.2

B18: NRP1-271 (antibody, IgG2, V domains shown)
VH: EVQLLESGGGLVQPGGSLRLSCAASGFTFTTYGMSWVRQAPGKGLEWVSAISGSGGTTYYADSVKGRFTISRDNSKNTLYLQMNSLRAEDTAVYYCARVGPGRSIAARQGFKRRNNWFDPWGQGTLVTVSS
VL: DIQMTQSPSSLSASVGDRVTITCRARQSISTYLNWYQQKPGKAPKLLIYSASTLESGVPSRFSGSGSGTDFTLTISSLQPEDFATYYCQQSYRTPWTFGGGTKVEIK
- 100 nM FACS (MFI Ratio): 0.8

B19: NRP1-217 (antibody, IgG2, V domains shown)
VH: EVQLLESGGGLVQPGGSLRLSCAASGFTFGRYAMSWVRQAPGKGLEWVSSISGSGGSTYYADSVKGRFTISRDNSKNTLYLQMNSLRAEDTAVYYCARQRIKPNTPRESFFRRAYSYYGMDVWGQGTLVTVSS
VL: B18 VL with A25T, R26S, S28R, Y32S, S50G, T53N, E55Q, V58A, R93F, W96I
- 100 nM FACS (MFI Ratio): 2.8

B20: NRP1-227 (antibody, IgG2, V domains shown)
VH: B1 VH with M28T, F29L, S30R, R31N, I51L, G53S, D56G, T57S, H59Y
VL: B18 VL with A25P, R26S, I29V, S30T, S50G, A51S, E55Q, R93T, T94F, W96R
- 100 nM FACS (MFI Ratio): 2.6

B21: NRP1-229 (antibody, IgG2, V domains shown)
VH: EVQLLESGGGLVQPGGSLRLSCAASGLTFSNFAMSWVRQAPGKGLEWVSAISGRGSSTYYADSVKGRFTISRDNSKNTLYLQMNSLRAEDTAVYYCARVMKMSRRIVGRRHRKGDGMDVWGQGTLVTVSS
VL: B18 VL with R26S, S28A, T31R, Y32S, S50G, T53A, E55Q, S56T, T94P, W96F
- 100 nM FACS (MFI Ratio): 1.2

B22: NRP1-238 (antibody, IgG2, V domains shown)
VH: B18 VH with T28S, T30S, T31N, A50S, G53H, T57S
VL: B15 VL with V29I, R30S, N31S, Y32Q, G50R, H55Q, G94T, Y96R
- 100 nM FACS (MFI Ratio): 0.9

B25: NRP1-214 (antibody, IgG2, V domains shown)
VH: B18 VH
VL: B15 VL with R30S, N31T, Y32S, H55Q, S56T, S91T, G94S, Y96R, S97T
- 100 nM FACS (MFI Ratio): 1

Continued, values first:

- 100 nM FACS (MFI Ratio): 2.1
B4: NRP1-127 (antibody, IgG2, V domains shown)
VH: EVQLLESGGGLVQPGGSLRLSCAASGFTFSNYGVSWVRQAPGKGLEWVSYISSSGSSTYYADSVKGRFTISRDNSKNTLYLQMNSLRAEDTAVYYCAKGARRFDYWGQGTLVTVSS
VL: DIQMTQSPSSLSASVGDRVTITCRASHNINSYLNWYQQKPGKAPKLLIYGKKNRPSGVPSRFSGSGSGTDFTLTISSLQPEDFATYYCGQSYRYPLTFGQGTKVEIK

- 100 nM FACS (MFI Ratio): 3
B6: NRP1-228 (antibody, IgG2, V domains shown)
VH: EVQLLESGGGLVQPGGSLRLSCAASGFSFSTHAMTWVRQAPGKGLEWVSTISGLGTGTYYADSVKGRFTISRDNSKNTLYLQMNSLRAEDTAVYYCARSTRGGFDYWGQGTLVTVSS
VL: B18 VL with R26G, S30R, T31S, S50A, E55Q, S56R, S91T, R93T, W96L

- 100 nM FACS (MFI Ratio): 1
B7: NRP1-224 (antibody, IgG2, V domains shown)
VH: B18 VH with T30G, T31S, G33A, S35A, A50G, S52T, G53A, T57S
VL: B18 VL with R26S, S28N, S30G, T31R, S50A, E55H, Y92H, R93S, T94N, W96F

- 100 nM FACS (MFI Ratio): 2.3
B9: NRP1-220 (antibody, IgG2, V domains shown)
VH: EVQLLESGGGLVQPGGSLRLSCAASGFTFRTYDMGWVRQAPGKGLEWVSAVSGSGGTTYYADSVKGRFTISRDNSKNTLYLQMNSLRAEDTAVYYCARETRRVLRRQWRRSYHSYGLDVWGQGTLVTVSS
VL: B18 VL with R26S, T31N, Y32K, S50A, E55Q, S56R, R93K, W96L

- 100 nM FACS (MFI Ratio): 0.8
B10: NRP1-235 (antibody, IgG2, V domains shown)
VH: EVQLLESGGGLVQPGGSLRLSCAASGFTFPNYAMTWVRQAPGKGLEWVSGISGSGGRIYYADSVKGRFTISRDNSKNTLYLQMNSLGAEDTAVYYCARARKFRELLRRNNYSNHYYMDVWGQGTLVTVSS
VL: B15 VL with A25T, V29I, R30G, R53K, H55Q, S91G, G94T, Y96R, S97T

- 100 nM FACS (MFI Ratio): 3.6
B11: NRP1-216 (antibody, IgG2, V domains shown)
VH: EVQLLESGGGLVQPGGSLRLSCAASGFSFRNYAMSWVRQAPGKGLEWVSTVSGSGSSTYYADSVKGRFTISRDNSKNTLYLQMNSLRAEDTAVYYCARGRRGMPAPDTVRKMAKSHLYFDSWGQGTLVTVSS
VL: B5 VL with T28S, V33L, N34S, H55S, A56G, G91T, S93T, L96Y

- 100 nM FACS (MFI Ratio): 15.9
B14: NRP1-16 (VHH)
VHH: EVQLVESGGGLVQPGGSLRLSCAASGRTFSRYVMGWFRQAPGKEREWVATSGTGYGATYADSVKGRFTISADNSKNTAYLQMNSLKPEDTAVYYCARGWLRTGWSIWGQGTLVTVSS

- 100 nM FACS (MFI Ratio): 1200
B17: NRP1-137 (antibody, IgG2, V domains shown)
VH: EVQLLESGGGLVQPGGSLRLSCAASGFTFSRYAMNWVRQAPGKGLEWVSTISSGGGYTYYPDSVKGRFTISRDNSKNTLYLQMNSLRAEDTAVYYCARSYGGGFDYWGQGTLVTVSS
VL: DIQMTQSPSSLSASVGDRVTITCQASQSISSYLAWYQQKPGKAPKLLIYPKHNRPPGVPSRFSGSGSGTDFTLTISSLQPEDFATYYCQQSYKSPLTFGQGTKVEIK

- 100 nM FACS (MFI Ratio): 0.2
B23: NRP1-239 (antibody, IgG2, V domains shown)
VH: B18 VH with T28P, T30S, T31N, G33T, S35G, G53A, T57S, T58P, K65N
VL: DIQMTQSPSSLSTSVGDRVTITCRASQNIGSHLNWYQQKPGKAPKLLIYATSSLRSGVPSRFSGSGSGTDFTLTISSLQPEDFATYYCQQSYRIPLTFGGGTKVEIK

- 100 nM FACS (MFI Ratio): 1.3
B24: NRP1-232 (antibody, IgG2, V domains shown)
VH: EVQLLESGGGLVQPGGSLRLSCAASGFTFTNYAMNWVRQAPGKGLEWVSSISGSGGRTDYADSVKGRFTISRDNSKNTLYLQMNSLRAEDTAVYYCARLKRGGTNLVRKATRYQFYGMDAWGQGTLVTVSS
VL: B18 VL with R26S, S28N, S30A, T31K, T53N, E55Q, S91N, R93K, W96Y

- 100 nM FACS (MFI Ratio): 0.6
B26: NRP1-280 (antibody, IgG2, V domains shown)
VH: B18 VH
VL: B5 VL
